Results on 167 variants are retold here after the RNAGym collection of RNA variant scans (doi:10.7554/elife.80360).

First the molecules themselves.
B1: Hammerhead Ribozyme (parent)
chain: ACCGGAUGUGCUUUCCGGUCUGAUGAGUCCGUGAGGACGAAACAG

In this data set the parent is B1. Nature of the data set: self-cleavage, relative activity (ratio to wild type); higher = more cleavage; co-transcriptional.
Turning to C29U G39U, the self-cleavage was determined as 0.369.

Take C29U G39A: the self-cleavage is 0.406.

On to C29U G39C, for which the self-cleavage is 0.326.

As to U28A G31A, the self-cleavage came to 0.856.

As to U28A G31U, the self-cleavage is 0.92.

Consider U28A G31C, for which the self-cleavage was determined as 0.919.

Regarding C29A G31A, the self-cleavage came to 0.606.

With C29A G31C, the self-cleavage was determined as 0.683.

As for C29A G31U, the self-cleavage was determined as 0.611.

With C29A C43U, the self-cleavage turned out to be 0.396.

As to C29A C43A, the self-cleavage worked out at 0.345.

As for C29A C43G, the self-cleavage is 0.348.

In the case of C29G C43A, the self-cleavage is 0.376.

Turning to C29G C43U, the self-cleavage amounted to 0.328.

On to C29G C43G, for which the self-cleavage was found to be 0.275.

With C29U C38U, the self-cleavage came out at 1.04.

In the case of C29U C38G, the self-cleavage turned out to be 0.559.

Consider C29U C38A, for which the self-cleavage stood at 0.485.

As to C29U A44C, the self-cleavage stood at 0.44.

Regarding C29U A44U, the self-cleavage came to 0.542.

For the variant C29U A44G, the self-cleavage is 1.27.

Consider U28A A40G, for which the self-cleavage turned out to be 0.394.

For the variant U28A A40C, the self-cleavage amounted to 0.352.

As for U28A A40U, the self-cleavage turned out to be 0.41.

For C29G A37G, the self-cleavage was 0.414.

C29G A37U: the self-cleavage was determined as 0.587.

Consider C29G A37C, for which the self-cleavage worked out at 0.759.

With C30A G36A, the self-cleavage came out at 0.573.

In the case of C30A A37G, the self-cleavage came out at 0.586.

C30A A37C: the self-cleavage worked out at 0.428.

Regarding C30A A37U, the self-cleavage was 0.42.

Take U28C G31A: the self-cleavage stood at 1.03.

For U28C G31U, the self-cleavage was determined as 0.854.

On to U28C G31C, for which the self-cleavage was 0.769.

C29U G31C: the self-cleavage is 0.673.

C29U G31A: the self-cleavage is 0.994.

Regarding C29U G31U, the self-cleavage was 0.783.

Turning to C30A, the self-cleavage is 0.919.

For C29U G36C, the self-cleavage is 0.603.

On to C29U G36U, for which the self-cleavage is 0.483.

Take C29U G36A: the self-cleavage was 0.722.

On to C30A A34G, for which the self-cleavage was found to be 0.628.

Take C30A A34C: the self-cleavage is 0.798.

Regarding C30A A34U, the self-cleavage amounted to 0.66.

Regarding C29A A40C, the self-cleavage was found to be 0.354.

For the variant C29A A40U, the self-cleavage amounted to 0.314.

In the case of C29A A40G, the self-cleavage is 0.294.

With C29G C38U, the self-cleavage came to 0.703.

Consider C29G C38A, for which the self-cleavage was 0.458.

On to C29G C38G, for which the self-cleavage was determined as 0.424.

With C30A A40U, the self-cleavage turned out to be 0.347.

As to C30A A40G, the self-cleavage turned out to be 0.414.

C30A A40C: the self-cleavage stood at 0.466.

Take U28C G45U: the self-cleavage worked out at 0.727.

As for U28C G45C, the self-cleavage was 0.406.

As for U28C G45A, the self-cleavage was 0.628.

With U28A C43G, the self-cleavage is 0.336.

Regarding U28A C43U, the self-cleavage is 0.381.

Regarding U28A C43A, the self-cleavage worked out at 0.292.

With U28G A40C, the self-cleavage turned out to be 0.383.

In the case of U28G A40G, the self-cleavage was 0.261.

Turning to U28G A40U, the self-cleavage amounted to 0.323.

On to C29A C38A, for which the self-cleavage amounted to 0.426.

With C29A C38G, the self-cleavage stood at 0.281.

As for C29A C38U, the self-cleavage is 0.652.

Turning to C29A G35C, the self-cleavage is 0.526.

With C29A G35U, the self-cleavage was determined as 0.727.

C29A G35A: the self-cleavage worked out at 0.618.

On to U28C G36C, for which the self-cleavage was 0.297.

As to U28C G36A, the self-cleavage came out at 0.634.

Turning to U28C G36U, the self-cleavage was 0.591.

Regarding U28C A41U, the self-cleavage worked out at 0.319.

Regarding U28C A41G, the self-cleavage was determined as 0.364.

U28C A41C: the self-cleavage was 0.29.

Regarding U28A C30U, the self-cleavage was found to be 0.562.

Consider U28A C30A, for which the self-cleavage amounted to 0.376.

Regarding U28A C30G, the self-cleavage turned out to be 0.384.

Turning to C30A A44U, the self-cleavage stood at 0.441.

Regarding C30A A44G, the self-cleavage was 0.819.

For the variant C30A A44C, the self-cleavage worked out at 0.317.

As to U28C C30U, the self-cleavage was determined as 0.573.

With U28C C30G, the self-cleavage came to 0.322.

On to U28C C30A, for which the self-cleavage worked out at 0.826.

For U28C A34G, the self-cleavage was 0.934.

For the variant U28C A34C, the self-cleavage is 0.684.

For the variant U28C A34U, the self-cleavage worked out at 0.723.

As to U28G C38G, the self-cleavage is 0.542.

As for U28G C38U, the self-cleavage amounted to 0.858.

On to U28G C38A, for which the self-cleavage came to 0.64.

For the variant C29G G45C, the self-cleavage came out at 0.371.

For C29G G45U, the self-cleavage stood at 0.458.

Take C29G G45A: the self-cleavage came out at 0.359.

Regarding U28A G39C, the self-cleavage stood at 0.382.

For the variant U28A G39U, the self-cleavage was determined as 0.301.

Consider U28A G39A, for which the self-cleavage was determined as 0.422.

As to C29A A42C, the self-cleavage was 0.304.

For C29A A42G, the self-cleavage was determined as 0.265.

Regarding C29A A42U, the self-cleavage was found to be 0.374.

Regarding C29U G45U, the self-cleavage was 0.596.

As for C29U G45A, the self-cleavage is 0.454.

C29U G45C: the self-cleavage was 0.443.

In the case of C30A G31A, the self-cleavage was found to be 1.12.

As for C30A G31C, the self-cleavage turned out to be 0.872.

C30A G31U: the self-cleavage stood at 1.07.

For the variant U28C C38A, the self-cleavage amounted to 0.789.

Turning to U28C C38U, the self-cleavage was 1.01.

Regarding U28C C38G, the self-cleavage amounted to 0.575.

Take C29U G33U: the self-cleavage is 0.92.

As to C29U G33A, the self-cleavage came to 0.959.

As to C29U G33C, the self-cleavage is 1.09.

Consider U28G A42G, for which the self-cleavage is 0.264.

For the variant U28G A42U, the self-cleavage was determined as 0.311.

For the variant U28G A42C, the self-cleavage stood at 0.24.

For U28A C29G, the self-cleavage amounted to 0.445.

For the variant U28A C29A, the self-cleavage was determined as 0.682.

Take U28A C29U: the self-cleavage amounted to 0.774.

In the case of C29A U32C, the self-cleavage was found to be 0.866.

Take C29A U32G: the self-cleavage was 0.504.

C29A U32A: the self-cleavage was determined as 0.643.

For C29A G45U, the self-cleavage was found to be 0.35.

Regarding C29A G45C, the self-cleavage worked out at 0.388.

In the case of C29A G45A, the self-cleavage came out at 0.372.

For U28G C29U, the self-cleavage amounted to 0.77.

U28G C29G: the self-cleavage came out at 0.547.

U28G C29A: the self-cleavage was 0.878.

As to C29A A41U, the self-cleavage turned out to be 0.301.

Take C29A A41G: the self-cleavage stood at 0.339.

For C29A A41C, the self-cleavage worked out at 0.355.

Turning to U28A U32A, the self-cleavage was 0.824.

On to U28A U32C, for which the self-cleavage came out at 0.626.

U28A U32G: the self-cleavage amounted to 0.306.

Turning to U28G C43A, the self-cleavage was 0.323.

Turning to U28G C43G, the self-cleavage worked out at 0.274.

U28G C43U: the self-cleavage came out at 0.3.

In the case of C29A G33A, the self-cleavage worked out at 0.816.

Take C29A G33C: the self-cleavage is 0.442.

Consider C29A G33U, for which the self-cleavage came out at 0.674.

C29G A44C: the self-cleavage turned out to be 0.35.

Take C29G A44U: the self-cleavage was found to be 0.398.

Turning to C29G A44G, the self-cleavage is 0.82.

As to U28C G33A, the self-cleavage amounted to 1.16.

For the variant U28C G33U, the self-cleavage was found to be 0.973.

As for U28C G33C, the self-cleavage was 0.906.

On to C29G A42U, for which the self-cleavage was determined as 0.394.

As for C29G A42G, the self-cleavage worked out at 0.269.

On to C29G A42C, for which the self-cleavage came out at 0.407.

Take U28G G39U: the self-cleavage is 0.32.

In the case of U28G G39A, the self-cleavage was found to be 0.411.

As for U28G G39C, the self-cleavage worked out at 0.323.

For the variant U28C A37U, the self-cleavage came to 0.772.

With U28C A37G, the self-cleavage is 0.914.

For the variant U28C A37C, the self-cleavage was 0.467.

Take U28G A41U: the self-cleavage came to 0.338.

Take U28G A41C: the self-cleavage was 0.348.

Take U28G A41G: the self-cleavage amounted to 0.421.

Turning to U28G A34U, the self-cleavage stood at 0.475.

In the case of U28G A34C, the self-cleavage was 0.411.

As to U28G A34G, the self-cleavage turned out to be 0.793.

Take U28A C38U: the self-cleavage was 0.703.

As to U28A C38A, the self-cleavage turned out to be 0.726.

With U28A C38G, the self-cleavage amounted to 0.521.

U28G G36A: the self-cleavage was 0.573.

Turning to U28G G36U, the self-cleavage came to 0.35.

With U28G G36C, the self-cleavage came to 0.317.

Take C29A A44U: the self-cleavage was found to be 0.407.

Turning to C29A A44G, the self-cleavage was 0.765.

As for C29A A44C, the self-cleavage was determined as 0.323.
